Experimental data taken from article PMC6773851, “Identification of protein-protein and ribonucleoprotein complexes containing Hfq” (Scientific Reports, 2019).

B1: Poly(A)polymerase, PAP (purified) (natural protein, E. coli, UniProt P0ABF1 11-465, looked up)
chain: KVLSREESEAEQAVARPQVTVIPREQHAISRKDISENALKVMYRLNKAGYEAWLVGGGVRDLLLGKKPKDFDVTTNATPEQVRKLFRNCRLVGRRFRLAHVMFGPEIIEVATFRGHHEGNVSDRTTSQRGQNGMLLRDNIFGSIEEDAQRRDFTINSLYYSVADFTVRDYVGGMKDLKDGVIRLIGNPETRYREDPVRMLRAVRFAAKLGMRISPETAEPIPRLATLLNDIPPARLFEESLKLLQAGYGYETYKLLCEYHLFQPLFPTITRYFTENGDSPMERIIEQVLKNTDTRIHNDMRVNPAFLFAAMFWYPLLETAQKIAQESGLTYHDAFALAMNDVLDEACRSLAIPKRLTTLTRDIWQLQLRMSRRQGKRAWKLLEHPKFRAAYDLLALRAEVERNAELQRLVKWWGEFQVSAPPDQKGMLNELDEEPSPRRRTRRPRKRAPRREGTA
notes: Poly(A) polymerase I, E. coli

Tests used:
[1] = system: HfqH6 (Ec-HfqHis6) (Escherichia coli); experiment: MST; settings: Hill coefficient 4.0; concentration calculated with 1 kb average length; MST: 50 mM Tris-HCl pH 7.6, 50 mM NH4Cl, 1 mM EDTA, 0.1% Triton X100, 5% glycerol; room temperature; 100 nM labelled HfqH6. Total E. coli RNA (EC50 3.2e-7 M …)
Ec-HfqHis6 (purified) [2] = target: T1, Ec-HfqHis6 (purified) (E. coli, UniProt P0A6X3 1-102); experiment: MST; one partner labelled (RED-NHS) and constant (HfqH6 100 nM), the other titrated; standard buffer (50 mM Tris-HCl pH7.6, 50 mM NH4Cl, 1 mM EDTA, 0.1% Triton X100, 5% glycerol); room temperature; Hill model; without RNA; settings: both partners purified
T1 construct: In MST labelled with a fluorescent dye (Protein Labeling Kit RED-NHS); also called HfqH6; purified Hfq
T1 sequence (P0A6X3 whole entry): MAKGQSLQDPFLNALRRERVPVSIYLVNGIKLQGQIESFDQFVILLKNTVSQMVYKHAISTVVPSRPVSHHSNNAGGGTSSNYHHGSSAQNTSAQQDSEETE

Ec-HfqHis6 (purified) [3] = target: T1, Ec-HfqHis6 (purified); experiment: MST; as the MST without RNA, but in the presence of E. coli total RNA; apparent affinity; settings: both partners purified

Molecule | K half [1] | EC50 (Ec-HfqHis6 (purified) [2]) | fold decrease of the apparent affinity in the presence of total RNA (Ec-HfqHis6 (purified) [3])
poly(A) | 600 nM |  | 
B1 |  | < 10 µM | ~10 fold
